The results in this text go back to the Immune Epitope Database (IEDB).

As usually defined, the Kd is the equilibrium constant for the complex coming apart.

One assay concerns the target HLA-A*01:01. Kind of assay: IEDB peptide-MHC binding, purified MHC/competitive/fluorescence; filed as Kd, often an IC50 or EC50 that approximates it; ≥ and ≤ were set here for values at or beyond the usual limits of such assays.
A further assay has as its target HLA-B*35:01. The assay is described as above.
For a further assay, the target named is HLA-A*68:02. The description is as above.
The next assay concerns the target HLA-A*02:11. The assay is described as above.
The next assay addresses HLA-A*26:01. Described as above.
The target of the next assay is HLA-A*02:16. Described as above.
A further assay concerns the target HLA-B*27:03. Described as above.
The target of a further assay is HLA-A*02:12. The assay is described as above.
A further assay has as its target HLA-A*24:03. Described as above.
Another assay addresses HLA-A*69:01. The description is as above.
The target of another assay is HLA-A*23:01. Described as above.
Another assay addresses HLA-B*18:01. The assay is described as above.
A further assay concerns the target HLA-A*03:01. The assay is described as above.
The next assay has as its target HLA-B*57:01. The assay is described as above.
The next assay deals with HLA-A*02:03. The description is as above.
The next assay concerns the target HLA-B*39:01. The description is as above.
In a further assay the target is HLA-A*02:19. The assay is described as above.
In a further assay the target is HLA-A*02:01. The assay is described as above.
In a further assay the target is HLA-B*15:17. Described as above.
The target of another assay is HLA-A*29:02. The description is as above.
The target in the next assay is HLA-B*15:01. The assay is described as above.
The next assay concerns the target HLA-B*46:01. The assay is described as above.
The next assay concerns the target HLA-B*51:01. The assay is described as above. Particulars: source organism: Giardia lamblia ATCC 50803.
Another assay has as its target HLA-C*06:02. Put plainly: IEDB peptide-MHC binding, purified MHC/direct/fluorescence; filed as Kd, often an IC50 or EC50 that approximates it; ≥ and ≤ were set here for values at or beyond the usual limits of such assays. To be noted: source organism: Influenza A virus (A/81/HO).
The target in another assay is HLA-B*58:01. Put plainly: IEDB peptide-MHC binding, purified MHC/competitive/fluorescence; filed as Kd, often an IC50 or EC50 that approximates it; ≥ and ≤ were set here for values at or beyond the usual limits of such assays. Particulars: source organism: Yersinia pestis Nepal516.
[1] abbreviates: source organism: Bacillus anthracis str. A0488.
The mark [2] stands for this setting: source organism: Giardia lamblia ATCC 50803.
Setting [3] is: source organism: Influenza A virus (A/81/HO).
Setting [4] is: source organism: Klebsiella pneumoniae subsp. pneumoniae NTUH-K2044.
The mark [5] stands for this setting: source organism: Yersinia pestis Nepal516.

For the sequence SASLAALFY, the values for the equilibrium dissociation constant (Kd) with HLA-A*01:01 (setting [1]) and in the assay with HLA-B*35:01 (setting [1]) were 0.0281 µM and 0.0002 µM, respectively.
With VIMWYNYLF, the Kd in the assay with HLA-A*68:02 (source organism: Fowlpox virus) is no less than 20 µM; with HLA-A*02:11 (source organism: Fowlpox virus) it was 0.0047 µM; with HLA-A*26:01 (source organism: Fowlpox virus), no less than 20 µM; with HLA-A*02:16 (source organism: Fowlpox virus) it was no less than 20 µM; with HLA-B*27:03 (source organism: Fowlpox virus) it was no less than 20 µM; in the assay with HLA-A*02:12 (source organism: Fowlpox virus) it was no less than 20 µM. Moreover, the equilibrium dissociation constant (Kd) with HLA-A*24:03 (source organism: Fowlpox virus), in the assay with HLA-A*69:01 (source organism: Fowlpox virus), with HLA-A*23:01 (source organism: Fowlpox virus), with HLA-B*18:01 (source organism: Fowlpox virus), with HLA-A*03:01 (source organism: Fowlpox virus) and in the assay with HLA-B*57:01 (source organism: Fowlpox virus) was no less than 20 µM in each case. Moreover, the Kd in the assay with HLA-A*02:03 (source organism: Fowlpox virus), in the assay with HLA-B*39:01 (source organism: Fowlpox virus), with HLA-A*02:19 (source organism: Fowlpox virus), with HLA-A*02:01 (source organism: Fowlpox virus), in the assay with HLA-B*15:17 (source organism: Fowlpox virus) and with HLA-A*29:02 (source organism: Fowlpox virus) was no less than 20 µM in each case. Moreover, the equilibrium dissociation constant (Kd) with HLA-B*15:01 (source organism: Fowlpox virus) and in the assay with HLA-B*46:01 (source organism: Fowlpox virus) was no less than 20 µM each time.
In the case of TEDDWITYI, the Kd in the assay with HLA-A*68:02 (setting [2]) was no less than 20 µM; with HLA-A*02:11 (setting [2]), no less than 20 µM; with HLA-A*26:01 (setting [2]) it was no less than 20 µM; with HLA-A*02:16 (setting [2]), 0.402 µM; in the assay with HLA-B*27:03 (setting [2]), no less than 20 µM; with HLA-A*02:12 (setting [2]) it was no less than 20 µM. For the same sequence, the dissociation constant (Kd) in the assay with HLA-A*24:03 (setting [2]), in the assay with HLA-A*69:01 (setting [2]), with HLA-A*23:01 (setting [2]), with HLA-B*18:01 (setting [2]), with HLA-A*03:01 (setting [2]) and in the assay with HLA-B*57:01 (setting [2]) was no less than 20 µM each time. In addition, the dissociation constant (Kd) with HLA-A*02:03 (setting [2]), with HLA-B*39:01 (setting [2]), in the assay with HLA-A*02:19 (setting [2]), with HLA-A*02:01 (setting [2]), with HLA-B*15:17 (setting [2]) and with HLA-A*29:02 (setting [2]) was no less than 20 µM throughout. Also, the dissociation constant (Kd) in the assay with HLA-B*51:01, with HLA-B*15:01 (setting [2]) and in the assay with HLA-B*46:01 (setting [2]) was no less than 20 µM in each case.
On to WMACNSAAF, for which the Kd in the assay with HLA-B*35:01 (setting [3]) was 0.0002 µM; with HLA-B*15:01 (setting [3]), 0.0146 µM; with HLA-B*46:01 (setting [3]), 0.109 µM; with HLA-C*06:02, no less than 20 µM.
NAMGADYYA: the Kd with HLA-A*26:01 (setting [2]), with HLA-A*02:16 (setting [2]), with HLA-B*27:03 (setting [2]), in the assay with HLA-A*24:03 (setting [2]), with HLA-A*23:01 (setting [2]) and in the assay with HLA-B*18:01 (setting [2]) was no less than 20 µM throughout. Further, the Kd is no less than 20 µM with HLA-A*03:01 (setting [2]); no less than 20 µM in the assay with HLA-B*57:01 (setting [2]); no less than 20 µM in the assay with HLA-A*02:03 (setting [2]); no less than 20 µM with HLA-B*39:01 (setting [2]); 0.0151 µM with HLA-A*02:19 (setting [2]); no less than 20 µM with HLA-A*02:01 (setting [2]). Moreover, the Kd is no less than 20 µM in the assay with HLA-B*15:17 (setting [2]); 0.869 µM with HLA-A*29:02 (setting [2]); no less than 20 µM with HLA-B*51:01; no less than 20 µM with HLA-B*15:01 (setting [2]); no less than 20 µM in the assay with HLA-B*46:01 (setting [2]).
On to KVLSHGWAY, for which the values for the Kd with HLA-A*03:01 (setting [4]) and with HLA-B*35:01 (setting [4]) were 0.429 µM and 0.0267 µM, respectively.
Turning to FTWSGDVRY, the equilibrium dissociation constant (Kd) was 0.404 µM with HLA-B*58:01, 0.132 µM with HLA-A*01:01 (setting [5]) and no more than 0.0001 µM with HLA-B*35:01 (setting [5]).
FTIRDVLAY: the equilibrium dissociation constant (Kd) in the assay with HLA-B*58:01 was 0.0041 µM; with HLA-A*03:01 (setting [5]), no less than 20 µM; with HLA-A*01:01 (setting [5]), 0.0025 µM; with HLA-B*35:01 (setting [5]), 0.0013 µM.
